Laboratory results reported in PMC9482650, “Quantitative fragmentomics allow affinity mapping of interactomes” (Nature Communications, 2022).

T1: APBA1_1, Q02410
T1 sequence (Q02410 651-752, limits assumed, looked up): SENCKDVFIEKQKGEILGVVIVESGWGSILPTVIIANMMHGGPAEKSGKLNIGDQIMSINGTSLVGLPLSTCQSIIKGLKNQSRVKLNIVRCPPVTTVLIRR

T2: ARHGAP21, Q5T5U3
T2 sequence (Q5T5U3 45-169, limits assumed, looked up): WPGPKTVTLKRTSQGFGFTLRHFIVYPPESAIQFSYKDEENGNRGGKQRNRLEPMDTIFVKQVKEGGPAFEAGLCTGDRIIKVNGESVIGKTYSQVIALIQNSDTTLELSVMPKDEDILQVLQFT

T3: DFNB31_1, Q9P202
T3 sequence (Q9P202 135-233, limits assumed, looked up): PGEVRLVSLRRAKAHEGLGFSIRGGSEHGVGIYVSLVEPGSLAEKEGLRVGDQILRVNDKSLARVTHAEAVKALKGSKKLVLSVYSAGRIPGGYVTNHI

T4: DLG3_1, Q92796
T4 sequence (Q92796 125-227, limits assumed, looked up): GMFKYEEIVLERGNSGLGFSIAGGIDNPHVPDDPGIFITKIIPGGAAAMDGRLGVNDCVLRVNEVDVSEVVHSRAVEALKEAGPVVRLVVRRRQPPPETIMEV

T5: DLG3_3, Q92796
T5 sequence (Q92796 374-475, limits assumed, looked up): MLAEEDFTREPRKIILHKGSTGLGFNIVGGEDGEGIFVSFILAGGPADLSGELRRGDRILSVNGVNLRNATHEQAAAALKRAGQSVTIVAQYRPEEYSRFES

T6: HTRA3, P83110
T6 sequence (P83110 354-453, limits assumed, looked up): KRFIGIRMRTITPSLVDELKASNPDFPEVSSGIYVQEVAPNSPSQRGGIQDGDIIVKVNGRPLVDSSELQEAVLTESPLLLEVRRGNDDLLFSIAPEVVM

T7: HTRA4, P83105
T7 sequence (P83105 378-476, limits assumed, looked up): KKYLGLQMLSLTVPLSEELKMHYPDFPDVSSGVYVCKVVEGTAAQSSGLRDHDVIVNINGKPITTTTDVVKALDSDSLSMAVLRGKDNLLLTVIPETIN

T8: MPDZ_5, O75970
T8 sequence (O75970 695-796, limits assumed, looked up): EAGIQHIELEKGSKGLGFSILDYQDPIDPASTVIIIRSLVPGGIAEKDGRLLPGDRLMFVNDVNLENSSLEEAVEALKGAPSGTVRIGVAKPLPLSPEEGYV

T9: MPP6, Q9NZW5
T9 sequence (Q9NZW5 125-219, limits assumed, looked up): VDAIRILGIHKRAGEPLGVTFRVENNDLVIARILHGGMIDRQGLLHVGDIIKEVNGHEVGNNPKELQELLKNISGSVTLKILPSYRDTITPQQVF

T10: NHERF3_3, Q5T2W1
T10 sequence (Q5T2W1 238-333, limits assumed, looked up): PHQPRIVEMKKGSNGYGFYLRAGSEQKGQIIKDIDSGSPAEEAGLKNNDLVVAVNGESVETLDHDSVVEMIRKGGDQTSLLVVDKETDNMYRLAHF

T11: PCLO, Q9Y6V0
T11 sequence (Q9Y6V0 4491-4600, limits assumed, looked up): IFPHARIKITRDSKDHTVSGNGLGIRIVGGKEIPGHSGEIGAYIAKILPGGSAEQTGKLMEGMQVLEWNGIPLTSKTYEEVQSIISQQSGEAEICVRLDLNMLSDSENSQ

T12: RHPN1, Q8TCX5
T12 sequence (Q8TCX5 508-602, limits assumed, looked up): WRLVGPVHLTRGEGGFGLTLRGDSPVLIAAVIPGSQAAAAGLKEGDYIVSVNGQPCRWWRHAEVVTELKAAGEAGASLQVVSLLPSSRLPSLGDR

T13: TJP3_3, O95049
T13 sequence (O95049 375-456, limits assumed, looked up): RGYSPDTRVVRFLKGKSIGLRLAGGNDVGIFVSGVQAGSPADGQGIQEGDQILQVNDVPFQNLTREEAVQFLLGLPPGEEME


Columns and labels:
Assay in all cases: holdup assay
Design in all cases: key: below the threshold = too weak to quantify, mostly under pKd 3.1 to 4
Conditions in all cases: plain residues with an end cap or a label only (N-terminal biotin on a linker: ado-ado)
[1] = target: T1, APBA1_1, Q02410
[2] = target: T2, ARHGAP21, Q5T5U3
[3] = target: ARHGEF12, Q9NZN5-2
Chain of ARHGEF12, Q9NZN5-2 (Q9NZN5 other isoform, or with tags, fused parts or gaps): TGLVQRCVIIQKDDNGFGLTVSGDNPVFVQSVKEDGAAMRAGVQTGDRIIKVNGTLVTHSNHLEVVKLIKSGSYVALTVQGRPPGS

[4] = target: T3, DFNB31_1, Q9P202
[5] = target: DLG1_1, Q12959
[6] = target: T4, DLG3_1, Q92796
[7] = target: T5, DLG3_3, Q92796
[8] = target: GORASP1, Q9BQQ3
Chain of GORASP1, Q9BQQ3 (Q9BQQ3 1-208): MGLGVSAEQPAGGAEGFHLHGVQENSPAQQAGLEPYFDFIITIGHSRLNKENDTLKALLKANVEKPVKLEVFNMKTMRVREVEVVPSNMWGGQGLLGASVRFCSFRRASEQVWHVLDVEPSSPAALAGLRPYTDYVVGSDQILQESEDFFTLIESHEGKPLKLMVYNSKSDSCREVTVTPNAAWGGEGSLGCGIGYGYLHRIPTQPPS

[9] = target: GORASP2, Q9H8Y8
[10] = target: T6, HTRA3, P83110
[11] = target: T7, HTRA4, P83105
[12] = target: LIMK2, P53671
Chain of LIMK2, P53671 (P53671 143-248): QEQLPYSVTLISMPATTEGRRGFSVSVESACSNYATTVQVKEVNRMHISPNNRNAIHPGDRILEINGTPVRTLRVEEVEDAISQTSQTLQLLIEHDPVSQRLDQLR

[13] = target: LNX1_1, Q8TBB1
Chain of LNX1_1, Q8TBB1 (Q8TBB1 261-371): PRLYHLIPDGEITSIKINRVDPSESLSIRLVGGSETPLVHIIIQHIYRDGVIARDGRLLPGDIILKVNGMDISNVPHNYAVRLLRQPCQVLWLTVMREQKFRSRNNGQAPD

[14] = target: LNX1_3, Q8TBB1
Chain of LNX1_3, Q8TBB1 (Q8TBB1 500-596): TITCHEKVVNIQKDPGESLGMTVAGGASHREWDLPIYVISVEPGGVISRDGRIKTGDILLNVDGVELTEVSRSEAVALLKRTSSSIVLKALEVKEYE

[15] = target: MAGI1_1, Q96QZ7
Chain of MAGI1_1, Q96QZ7 (Q96QZ7 1-106): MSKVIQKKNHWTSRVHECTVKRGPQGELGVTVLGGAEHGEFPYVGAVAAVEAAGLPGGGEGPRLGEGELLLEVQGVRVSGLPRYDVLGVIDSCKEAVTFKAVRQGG

[16] = target: MAGI2_6, Q86UL8
Chain of MAGI2_6, Q86UL8 (Q86UL8 1141-1229): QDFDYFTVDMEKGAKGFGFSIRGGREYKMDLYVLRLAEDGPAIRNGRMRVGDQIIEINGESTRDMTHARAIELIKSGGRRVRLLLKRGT

[17] = target: T8, MPDZ_5, O75970
[18] = target: T9, MPP6, Q9NZW5
[19] = target: T10, NHERF3_3, Q5T2W1
[20] = target: T11, PCLO, Q9Y6V0
[21] = target: PDZRN4_1, Q6ZMN7
Chain of PDZRN4_1, Q6ZMN7 (Q6ZMN7 213-318): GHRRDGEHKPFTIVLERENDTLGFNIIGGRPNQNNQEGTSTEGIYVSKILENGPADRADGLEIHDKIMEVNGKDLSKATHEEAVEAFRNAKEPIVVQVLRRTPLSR

[22] = target: PTPN3, P26045
Chain of PTPN3, P26045 (P26045 505-587): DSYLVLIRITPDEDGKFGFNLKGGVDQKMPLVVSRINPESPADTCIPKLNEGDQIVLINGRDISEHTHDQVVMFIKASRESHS

[23] = target: T12, RHPN1, Q8TCX5
[24] = target: T13, TJP3_3, O95049

Binder	pKd [1]	pKd [2]	pKd [3]	pKd [4]	pKd [5]	pKd [6]	pKd [7]	pKd [8]	pKd [9]	pKd [10]	pKd [11]	pKd [12]	pKd [13]	pKd [14]	pKd [15]	pKd [16]	pKd [17]	pKd [18]	pKd [19]	pKd [20]	also measured
NVYGIESVKI [GRIA2, P42262]	3.52	below the threshold	3.59	below the threshold	below the threshold	3.5	below the threshold	3.58	4.18	3.64	3.74	below the threshold	4.07	below the threshold	3.59	below the threshold	below the threshold	below the threshold	below the threshold	below the threshold	pKd [21]: below the threshold; pKd [22]: below the threshold; pKd [23]: 3.81; pKd [24]: below the threshold
PSHPRLQTHV [KIRREL2, Q6UWL6]	below the threshold	below the threshold	4.26	below the threshold	4.24	3.55	3.75	below the threshold	3.55	below the threshold	3.6	below the threshold	below the threshold	below the threshold	below the threshold	below the threshold	below the threshold	3.59	below the threshold	below the threshold	pKd [21]: below the threshold; pKd [22]: 4.13; pKd [23]: 4.11; pKd [24]: below the threshold
DFLSTFHIRI [CIB2, O75838]	4.08	4.13	below the threshold	3.55	below the threshold	below the threshold	below the threshold	4.59	4.46	below the threshold	3.91	below the threshold	below the threshold	4.28	below the threshold	below the threshold	below the threshold	below the threshold	below the threshold	below the threshold	pKd [21]: below the threshold; pKd [22]: below the threshold; pKd [23]: below the threshold; pKd [24]: below the threshold

Continued, in another order:

pKd [1]	pKd [2]	pKd [3]	pKd [4]	pKd [5]	pKd [6]	pKd [7]	pKd [8]	pKd [9]	pKd [10]	pKd [11]	pKd [12]	pKd [13]	pKd [14]	pKd [15]	pKd [16]	pKd [17]	pKd [18]	pKd [19]	pKd [20]	Binder	also measured
below the threshold	3.93	5.58	4.39	4.05	3.61	3.85	3.59	below the threshold	below the threshold	below the threshold	below the threshold	3.8	below the threshold	below the threshold	4.08	below the threshold	below the threshold	below the threshold	below the threshold	GIKKITSTAL [RPS6KA3, P51812]	pKd [21]: 4.6; pKd [22]: 5; pKd [23]: 3.93; pKd [24]: below the threshold
below the threshold	below the threshold	3.79	below the threshold	below the threshold	below the threshold	below the threshold	below the threshold	below the threshold	below the threshold	below the threshold	below the threshold	below the threshold	below the threshold	below the threshold	below the threshold	below the threshold	below the threshold	below the threshold	below the threshold	TISFTQTSQF [SLC1A1, P43005]	pKd [21]: below the threshold; pKd [22]: 4.09; pKd [23]: 3.73; pKd [24]: below the threshold
below the threshold	below the threshold	below the threshold	below the threshold	below the threshold	below the threshold	below the threshold	below the threshold	below the threshold	below the threshold	3.82	below the threshold	below the threshold	below the threshold	below the threshold	below the threshold	below the threshold	below the threshold	below the threshold	below the threshold	NNNVVKVDSV [MTNR1A, P48039]	pKd [21]: below the threshold; pKd [22]: below the threshold; pKd [23]: below the threshold; pKd [24]: below the threshold
